Data reported in US20090068158A1, “THYMIDYLATE KINASE MUTANTS AND USES THEREOF” (priority 2005, published 2009).

Key:
[1] = relative to wild-type tmpk; cited from earlier work
[2] = Enzymatic activity of tmpk mutants for AZT-MP; type: biochemical, human

B1: F105Y+R200A: modified human tmpk combining mutations F105Y and R200A (protein, UniProt P23919 2-212, looked up, variant F105Y R200A)
Thymidylate kinase: AARRGALIVLEGVDRAGKSTQSRKLVEALCAAGHRAELLRFPERSTEIGKLLSSYLQKKSDVEDHSVHLLFSANRWEQVPLIKEKLSQGVTLVVDRYAFSGVAYTGAKENFSLDWCKQPDVGLPKPDLVLFLQLQLADAAKRGAFGHERYENGAFQERALRCFHQLMKDTTLNWKMVDASKSIEAVHEDIRVLSEDAIATATEKPLGELWK
enhanced activity for AZT-MP [1]: approximately 200 fold | enzymatic activity / catalytic conversion compared to wild-type tmpk (in words) [2]: superior enzymatic activity
